From publication doi:10.1101/565937

Legend:
Assay in all cases: EMSA
HuR [1] = target: T1, HuR (UniProt Q15717 1-326)
AUF1p37 = AUF1p37 (Homo sapiens, UniProt Q14103-4 1-287)
HuR [2] = target: T1, HuR; remark: listed apart in the source

T1 sequence (Q15717 whole entry): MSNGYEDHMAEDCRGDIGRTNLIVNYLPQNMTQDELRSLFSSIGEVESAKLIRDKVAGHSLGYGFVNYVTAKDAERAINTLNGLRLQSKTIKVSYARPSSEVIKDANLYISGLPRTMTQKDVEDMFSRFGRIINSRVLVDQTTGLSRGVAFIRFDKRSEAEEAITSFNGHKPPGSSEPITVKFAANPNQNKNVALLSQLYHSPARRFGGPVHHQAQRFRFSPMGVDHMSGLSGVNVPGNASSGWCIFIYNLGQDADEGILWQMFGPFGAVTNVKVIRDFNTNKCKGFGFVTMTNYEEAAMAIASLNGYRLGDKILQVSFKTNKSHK

Q: Does AAAAACUUAUUUAUACUGUU (ssRNA) [Nrf2 3'-UTR Site 2] bind (HuR [1])?
A: Result: no binding

Q: And the Kd (AUF1p37)?
A: Its Kd is 25 ± 4 nM.

Q: Which Kd (AUF1p37) does the source give for AAAAAAAUUUUAAGAGCUGG (ssRNA) [Nrf2 3'-UTR Site 3] here?
A: The Kd was 670 ± 82 nM.

Q: And the Kd (HuR [2])?
A: The Kd was 75 ± 20 nM.

Q: GCUAGUUUUUUUGUACUAUU (ssRNA) [Nrf2 3'-UTR Site 1] was tested. Which Kd (AUF1p37) did it give?
A: Its Kd is 6 ± 2 nM.

Q: What about the Kd (HuR [2]) of the same binder?
A: The Kd was 20 ± 5 nM.
